T1: mouse pIgR extracellular domain (ECD) (mouse, UniProt O70570 19-645)
T1 construct: The entry ends with a C-terminal HHHHHH tag; also called mpIgR; mpIgR ectodomain
T1 sequence: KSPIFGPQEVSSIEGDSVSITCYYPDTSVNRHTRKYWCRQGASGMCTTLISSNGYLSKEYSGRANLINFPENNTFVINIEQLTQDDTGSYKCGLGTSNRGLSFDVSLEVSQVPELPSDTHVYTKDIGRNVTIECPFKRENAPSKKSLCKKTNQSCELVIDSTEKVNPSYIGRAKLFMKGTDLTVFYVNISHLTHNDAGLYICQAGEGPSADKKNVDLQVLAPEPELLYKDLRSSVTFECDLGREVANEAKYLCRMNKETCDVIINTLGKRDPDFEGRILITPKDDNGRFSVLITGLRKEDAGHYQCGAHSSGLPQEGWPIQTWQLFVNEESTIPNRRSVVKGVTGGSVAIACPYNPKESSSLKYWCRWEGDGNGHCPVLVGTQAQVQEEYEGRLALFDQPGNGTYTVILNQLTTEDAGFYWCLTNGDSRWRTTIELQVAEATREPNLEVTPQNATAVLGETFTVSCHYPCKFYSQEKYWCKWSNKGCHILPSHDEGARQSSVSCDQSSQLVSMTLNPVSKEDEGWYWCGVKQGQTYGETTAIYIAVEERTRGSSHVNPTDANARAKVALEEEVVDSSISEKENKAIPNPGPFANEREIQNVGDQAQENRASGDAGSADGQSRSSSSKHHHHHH


Target: T1, mouse pIgR extracellular domain (ECD)
Test: not named on the sheet

Binder	binding result
VHH2 - linker-mono-Fc protein (Fc fusion, also called VHH2-mono-Fc; mpIgR_338) EVQVVESGGGLVQAGGSLKLACAAPGLTFSSYRMGWFRQAPGQEREFVAAIDWNGRGTYYRYYADSVKGRSTISRDNAKNTVYLQMNSLKPEDTAVYYCAATTVLTDPRVLNEYATWGQGTQVTVSSEPKTPKPQPQPQLQPQPNPTTESKSPKSPAPELLGGPSVFLFPPKPKDTLMISRTPEVTCVVVDVSHEDPEVKFNWYVDGVEVHNAKTKPREEQYNSTYRVVSVLTVLHQDWLNGKEYKCKVSNKALPAPIEKTISKAKGQPREPQVYTKPPSREEMTKNQVSLSCLVKGFYPSDIAVEWESNGQPENNYKTTVPVLDSDGSFRLASYLTVDKSRWQQGNVFSCSVMHEALHNHYTQKSLSLSPGK	binds
VHH3 - linker-mono-Fc protein (Fc fusion, also called VHH3-mono-Fc; hpIgR_021) QLQLVESGGGLVQPGGSLRLSCAASGSIFSINVMGWYRQAPGKQRELVARINGGGITHYAESVKGRFTISRDNAKNTVYLQMNSLKPEDTAAYYCKADVFGSSGYVETYWGQGTQVTVSSEPKTPKPQPQPQLQPQPNPTTESKSPKSPAPELLGGPSVFLFPPKPKDTLMISRTPEVTCVVVDVSHEDPEVKFNWYVDGVEVHNAKTKPREEQYNSTYRVVSVLTVLHQDWLNGKEYKCKVSNKALPAPIEKTISKAKGQPREPQVYTKPPSREEMTKNQVSLSCLVKGFYPSDIAVEWESNGQPENNYKTTVPVLDSDGSFRLASYLTVDKSRWQQGNVFSCSVMHEALHNHYTQKSLSLSPGK	binds

Source: patent publication US20230019640A1 (Janssen / Centocor, published 2023)
